These results are taken from patent publication US20200362051A1 (CRESCENDO BIOLOGICS, published 2020).

The target of assay [1] is T1, human PSMA expressed on cells (human, UniProt Q04609 1-750).
T1 construct: Type II membrane glycoprotein; also called CHO human PSMA; CHO PSMA
Nature of the assay: dual-binding cell ELISA: CHO-PSMA cells, bound construct detected with 1 nM CD137huFc and anti-huFc-HRP; average ± SD, n=3. The procedure:
(§1) Dual target engagement of CD137 and PSMA by the bispecific molecules was assessed using an ELISA format and by flow cytometry with T cells. For ELISA, CHO-PSMA cells (20000/well) were seeded into 96 well plates (Greiner cat no. 353872) in Hams F12 supplemented with L-Glutamine+Blasticidin+Tetracycline and incubated at 37° C. with 5% CO₂ overnight. All subsequent steps were performed at room temperature and included washes with PBS between each step. Plates were blocked with PBS/0.1% BSA for 1 hour then serially diluted Humabody® VH were added and allowed to bind for 1 hour. Following removal of unbound VH, 1 nM CD137huFc (Acro Biosystems cat no. 41B-H5258) was added to the wells and incubated for 1 hour. A 1:3000 dilution of Anti-huFc-HRP (Jackson ImmunoResearch cat no. 109-035-098) was subsequently added for 1 hour and plates developed by addition of TMB. The reaction was stopped by addition of 0.5M sulphuric acid and plates read on BMG PheraStar at Absorbance 450 nm. […] Human CD8+ T cells pre-stimulated for 48 hours with PMA/ionomycin were washed with FACS buffer (PBS supplemented with 10% human serum and 0.05% sodium azide) by centrifugation. Serially diluted bispecific and trispecific Humabody VH construct were added to the cells for 1 hour on ice. Plates were washed with FACS buffer then detection mix containing 5 nM biotinylated-PSMA, 20 nM Streptavidin AlexaFluor488 and Live/Dead NearIR cell stain dilution added. Plates were incubated at 4° C. for 1 hour then washed twice with FACS buffer by centrifugation. Cells were fixed by addition 1× BD Cell fix solution, then washed twice with PBS by centrifugation and the cell pellets resuspended in PBS. Fluorescence was measured in the RL2-H channels (Live/Dead stain) and BL1-H channel (AlexaFluor488 stain) on the iQue Plus Screener (IntelliCyt). The bispecific and trispecific molecules were able to simultaneously bind human CD8+ T cells and PSMA protein.
A general note: ELISA stands for enzyme-linked immunosorbent assay.

Assay [2] addresses T2, human CD137 expressed on cells (human, UniProt Q07011 24-255).
T2 construct: Whole entry with its signal peptide; also called 4-1BB; TNFRS9
Nature of the assay: dual-binding flow cytometry: pre-stimulated human CD8+ T cells, bound construct detected with 5 nM biotinylated-PSMA and streptavidin-AlexaFluor488; average ± SD, at least 6 donors. The procedure: as §1, with “Serially diluted bispecific and trispecific Humabody VH construct were added to the cells for 1 hour on ice. Plates were washed with FACS buffer then detection mix containing 5 nM biotinylated-PSMA, 20 nM Streptavidin AlexaFluor488 and Live/Dead NearIR cell stain dilution added. Plates were incubated at 4° C. for 1 hour then washed twice with FACS buffer by centrifugation. Cells were fixed by addition 1× BD Cell fix solution, then washed twice with PBS by centrifugation and the cell pellets resuspended in PBS.” left out, “The bispecific and trispecific molecules were able to simultaneously bind human CD8+ T cells and PSMA protein.” left out

Assay [3] deals with T3, rhesus CD137-human IgG1 Fc tagged protein (rhesus; human, UniProt F6W5G6 24-186).
T3 construct: also called rhesus CD137Fc; rhesus CD137Fc recombinant protein
T3 sequence: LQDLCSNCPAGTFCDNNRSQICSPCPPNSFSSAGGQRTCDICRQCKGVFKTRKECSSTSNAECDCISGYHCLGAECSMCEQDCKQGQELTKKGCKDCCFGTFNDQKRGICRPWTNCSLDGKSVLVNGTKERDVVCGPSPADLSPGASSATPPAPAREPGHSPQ
Nature of the assay: SPR (Biacore T200), single cycle kinetics, rhesus CD137-Fc captured on Protein G chip, 25 C, 1:1 fit; average ± SD. The procedure:
(§2) The Biacore T200 instrument was used to study the interaction between VH with human and rhesus CD137-human IgG1 Fc tagged protein by surface plasmon resonance (SPR). Single cycle kinetics assays used to evaluate the kinetics and affinity of the interaction. Experiments were performed at 25° C. in HBS-EP+ assay buffer with a flow rate of 30 μl/minute. A Protein G chip was used to capture the Fc tagged recombinant CD137 diluted to 2 μg/ml to one of the flow cells over 7 seconds. A second flow cell without any captured CD137 was used as the reference cell. A five point, three-fold dilution series of VH was made with a top concentration of 60 nM. The binding kinetics were followed by flowing these over the chip surface. The contact time for each of the binding steps was 180 seconds and the dissociation step was 1800 and 3600 seconds for rhesus and human CD137 respectively. After each run, the sensors were regenerated with glycine pH 1.5 to remove the captured CD137. The data was fitted to a 1:1 binding model after double reference subtraction using the Biacore T200 Evaluation software.
(Surface plasmon resonance follows binding to a sensor surface in real time, without labels.)

Assay [4] addresses T4, human CD137-human Fc chimeric protein (Acro Biosystems cat no. 41B-H5258) (human, UniProt Q07011 24-186).
T4 construct: Bought protein; also called CD137-Fc tag protein; CD137huFc; not shown: human IgG1 Fc
The assay is described as follows: dual binding cell based ELISA: serially diluted VH on plated CHO human PSMA cells, then 1 nM CD137huFc, detection with anti human Fc-HRP, absorbance 450 nm. As for the experimental part: Association 1—Binding of the trispecific molecule to CD137Fc captured on protein G biosensors. Association 2—binding of Human serum Albumin, Association 3—Binding of PSMA in the presence of Human serum albumin to minimise HSA dissociation. […] Dual target engagement of CD137 and PSMA by the bispecific molecules was assessed using an ELISA format and by flow cytometry with T cells. For ELISA, CHO-PSMA cells (20000/well) were seeded into 96 well plates (Greiner cat no. 353872) in Hams F12 supplemented with L-Glutamine+Blasticidin+Tetracycline and incubated at 37° C. with 5% CO₂ overnight. All subsequent steps were performed at room temperature and included washes with PBS between each step. Plates were blocked with PBS/0.1% BSA for 1 hour then serially diluted Humabody® VH were added and allowed to bind for 1 hour. Following removal of unbound VH, 1 nM CD137huFc (Acro Biosystems cat no. 41B-H5258) was added to the wells and incubated for 1 hour. A 1:3000 dilution of Anti-huFc-HRP (Jackson ImmunoResearch cat no. 109-035-098) was subsequently added for 1 hour and plates developed by addition of TMB. The reaction was stopped by addition of 0.5M sulphuric acid and plates read on BMG PheraStar at Absorbance 450 nm. […] Fluorescence was measured in the RL2-H channels (Live/Dead stain) and BL1-H channel (AlexaFluor488 stain) on the iQue Plus Screener (IntelliCyt). […]

Assay [5] concerns the target T5, cynomolgus PSMA expressed on CHO cells (cynomolgus, UniProt A0A2K5VNZ0 1-750).
T5 construct: whole, on cells; also called CHO cynomolgus PSMA cells
The assay is described as follows: FMAT, CHO cynomolgus PSMA cells, detection with CD137huFc and anti human Fc-Alexa Fluor-488; n=3.

The target of assay [6] is T3, rhesus CD137-human IgG1 Fc tagged …. The assay is described as follows: SPR (Biacore T200), single cycle kinetics, rhesus CD137-Fc captured on Protein G chip, 25 C, 1:1 fit. The procedure: as §2

T1 sequence (Q04609 whole entry): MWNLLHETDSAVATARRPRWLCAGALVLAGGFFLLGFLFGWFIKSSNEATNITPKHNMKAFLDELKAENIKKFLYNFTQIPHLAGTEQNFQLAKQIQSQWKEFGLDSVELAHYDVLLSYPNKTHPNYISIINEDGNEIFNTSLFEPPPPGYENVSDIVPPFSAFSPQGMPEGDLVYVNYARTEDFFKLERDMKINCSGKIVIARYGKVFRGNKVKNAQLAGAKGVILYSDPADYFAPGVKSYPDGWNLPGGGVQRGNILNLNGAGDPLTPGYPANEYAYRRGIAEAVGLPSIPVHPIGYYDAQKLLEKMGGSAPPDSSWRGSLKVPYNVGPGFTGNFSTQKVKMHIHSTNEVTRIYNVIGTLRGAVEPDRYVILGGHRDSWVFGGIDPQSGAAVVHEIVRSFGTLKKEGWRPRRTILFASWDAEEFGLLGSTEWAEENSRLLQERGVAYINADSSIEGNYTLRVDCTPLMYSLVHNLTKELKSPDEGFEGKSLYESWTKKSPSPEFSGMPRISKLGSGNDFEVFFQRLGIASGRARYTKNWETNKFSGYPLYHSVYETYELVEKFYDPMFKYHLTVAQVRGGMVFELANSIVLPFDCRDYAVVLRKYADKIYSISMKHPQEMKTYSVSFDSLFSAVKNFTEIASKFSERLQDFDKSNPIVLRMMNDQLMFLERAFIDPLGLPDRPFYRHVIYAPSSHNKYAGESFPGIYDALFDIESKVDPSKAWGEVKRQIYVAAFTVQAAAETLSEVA
T2 sequence (Q07011 24-255 limits assumed): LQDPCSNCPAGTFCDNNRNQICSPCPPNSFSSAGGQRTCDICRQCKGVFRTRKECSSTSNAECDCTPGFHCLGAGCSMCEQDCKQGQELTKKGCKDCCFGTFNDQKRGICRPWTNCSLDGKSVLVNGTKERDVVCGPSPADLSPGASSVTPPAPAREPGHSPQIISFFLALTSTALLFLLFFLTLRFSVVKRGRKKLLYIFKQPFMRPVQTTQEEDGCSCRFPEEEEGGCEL

B1: 4.1-6GS-1.113 (bispecific antibody)
chain: EVQLVESGGGVVQPGRSLRLSCAASGFSFSGYGMHWVRQAPGKGLEWVAYISYDGSNKYYADSVKGRFTISRDNSKNTLYLQMNSLRAEDTAVYYCAKDPAWGLRLGESSSYDFDIWGQGTMVTVSSGGGGSGGGGSGGGGSGGGGSGGGGSGGGGSEVQLVESGGGLVQPGGSLRLSCAASGFTLSNYWMNWVRQAPGKGLEWVANINQDGSERYYVDSVKGRFTISRDNAKNSLYLQMNSLRAEDTAVYYCARGGEGYGVDHYGLDVSGQGTTVTVSS
notes: the tested construct may be that one
In general, EC50 refers to the concentration that produces a half-maximal response. Regarding B1, the concentration for a half-maximal effect (EC50) in assay [1] is 0.57 nM; in assay [2], 1.3 nM.

B2: Humabody 1.113 (VHH)
VHH: EVQLVESGGGLVQPGGSLRLSCAASGFTLSNYWMNWVRQAPGKGLEWVANINQDGSERYYVDSVKGRFTISRDNAKNSLYLQMNSLRAEDTAVYYCARGGEGYGVDHYGLDVSGQGTTVTVSS
For orientation: Kd means the equilibrium constant for the complex coming apart. High values mean weaker binding, low ones tighter binding. The term koff denotes the rate constant with which the complex falls apart. The low end stands for a long-lived complex, the high end for a short-lived complex. The kon is a measure of how fast the partners come together. In assay [3], B2 registered a Kd of 0.27 nM, a koff of 0.00028 s⁻¹ and a kon of 1.1e+06 M⁻¹ s⁻¹.

B3: Humabody VH 4.1 (VHH)
VHH: EVQLVESGGGVVQPGRSLRLSCAASGFSFSGYGMHWVRQAPGKGLEWVAYISYDGSNKYYADSVKGRFTISRDNSKNTLYLQMNSLRAEDTAVYYCAKDPAWGLRLGESSSYDFDIWGQGTMVTVSS
Take B3: in assay [4], the binding result is “no binding (tested: 1e-7 M (log10 -7))”.

B4: 4.1-6GS-VH HSA 6GS-1.113-4GS (bispecific antibody)
chain: EVQLVESGGGVVQPGRSLRLSCAASGFSFSGYGMHWVRQAPGKGLEWVAYISYDGSNKYYADSVKGRFTISRDNSKNTLYLQMNSLRAEDTAVYYCAKDPAWGLRLGESSSYDFDIWGQGTMVTVSSGGGGSGGGGSGGGGSGGGGSGGGGSGGGGSEVQLVESGGGLVQPGRSLRLSCAASGFTFHHYAMHWVRQAPGKGLEWVSGISWNGNKITYADSVKGRFTISRDNAKNSLYLQMNSLRAEDTALYYCVRDSSLFIVGAPTFEHWGRGTLVTVSSGGGGSGGGGSGGGGSGGGGSGGGGSGGGGSEVQLVESGGGLVQPGGSLRLSCAASGFTLSNYWMNWVRQAPGKGLEWVANINQDGSERYYVDSVKGRFTISRDNAKNSLYLQMNSLRAEDTAVYYCARGGEGYGVDHYGLDVSGQGTTVTVSSGGGGSGGGGSGGGGSGGGGS
notes: Trispecific single-chain fusion of three VH domains (PSMA, human serum albumin, CD137)
Molecule B4 had an EC50 in assay [1] of 1.1 nM.

B5: 4.1-6GS-1.113-6GS-VH (HSA)-4GS (bispecific antibody)
chain: EVQLVESGGGVVQPGRSLRLSCAASGFSFSGYGMHWVRQAPGKGLEWVAYISYDGSNKYYADSVKGRFTISRDNSKNTLYLQMNSLRAEDTAVYYCAKDPAWGLRLGESSSYDFDIWGQGTMVTVSSGGGGSGGGGSGGGGSGGGGSGGGGSGGGGSEVQLVESGGGLVQPGGSLRLSCAASGFTLSNYWMNWVRQAPGKGLEWVANINQDGSERYYVDSVKGRFTISRDNAKNSLYLQMNSLRAEDTAVYYCARGGEGYGVDHYGLDVSGQGTTVTVSSGGGGSGGGGSGGGGSGGGGSGGGGSGGGGSEVQLVESGGGLVQPGRSLRLSCAASGFTFHHYAMHWVRQAPGKGLEWVSGISWNGNKITYADSVKGRFTISRDNAKNSLYLQMNSLRAEDTALYYCVRDSSLFIVGAPTFEHWGRGTLVTVSSGGGGSGGGGSGGGGSGGGGS
notes: Trispecific single-chain fusion of three VH domains (PSMA, CD137, human serum albumin)
For B5, the EC50 in assay [1] is 2.2 nM. In addition, it took 0.57 nM to reach a half-maximal effect in assay [5] (EC50). In assay [6], binding was characterised by a dissociation constant (Kd) of 0.12 nM, the koff came out at 5.2e-05 s⁻¹ and the kon came to 440000 M⁻¹ s⁻¹.
